Reference: patent publication WO2013125221A1 (dated 2013)

Molecular target: T1, MBP-IGKVDJ3-6×His (MBP fusion human antibody kappa light chain variable region protein, family 3 consensus)
T1 construct: also called MBP-VK3
Test: SPR (legend of Fig. 12B), control MBP

T1 sequence (chain, as listed by the source): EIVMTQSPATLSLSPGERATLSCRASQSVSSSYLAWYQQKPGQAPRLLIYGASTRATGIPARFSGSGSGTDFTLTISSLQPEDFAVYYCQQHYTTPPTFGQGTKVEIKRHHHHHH

binding result: binds
B1: code 15 peptide (peptide)
peptide: WHWNWMRLDPMT
